The target of test [1] is T1, human MSLN-R2-his protein (human, UniProt Q13421 391-486).
T1 construct: also called hMSLN-R2-his; not shown: His tag
The test is described as follows: ELISA; antibody 10 nM. Background: In an ELISA, binding on a coated surface is turned into a signal by an enzyme label.

In test [2] the target is T1, human MSLN-R2-his protein. The test is described as follows: ELISA; antibody 0.1 nM.
Test [3] addresses T1, human MSLN-R2-his protein. As to the kind of experiment: ELISA; antibody 100 nM.
Test [4] addresses T1, human MSLN-R2-his protein. The test is described as follows: ELISA; antibody 0.0001 nM.
For test [5], the target named is T2, human MSLN-R3-his protein (human, UniProt Q13421 487-598).
T2 construct: also called hMSLN-R3-his; not shown: His tag
T2 sequence (Q13421 495-606): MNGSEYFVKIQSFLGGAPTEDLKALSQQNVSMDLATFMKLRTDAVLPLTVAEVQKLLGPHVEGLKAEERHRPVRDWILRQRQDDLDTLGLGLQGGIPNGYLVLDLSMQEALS
As to the kind of experiment: ELISA; antibody 0.0001 nM.

Test [6] concerns the target T3, human MSLN protein, endogenously expressed on Hela and OVCAR3 cells (human, UniProt Q13421 296-598).
T3 construct: whole, on cells; also called mesothelin
The test is described as follows: FACS on OVCAR3 cells; antibody 4 nM.

Test [7] has as its target T3, human MSLN protein, endogenously …. The test is described as follows: FACS on OVCAR3 cells; antibody 100 nM.
For test [8], the target named is T4, human MSLN-FL-his protein (human, UniProt Q13421 296-580).
T4 construct: made in HEK293E cells, purified on nickel column; also called hMSLN-FL-his; human MSLN full-length protein; not shown: His tag
T4 sequence (Q13421 other isoform, or with tags, fused parts or gaps): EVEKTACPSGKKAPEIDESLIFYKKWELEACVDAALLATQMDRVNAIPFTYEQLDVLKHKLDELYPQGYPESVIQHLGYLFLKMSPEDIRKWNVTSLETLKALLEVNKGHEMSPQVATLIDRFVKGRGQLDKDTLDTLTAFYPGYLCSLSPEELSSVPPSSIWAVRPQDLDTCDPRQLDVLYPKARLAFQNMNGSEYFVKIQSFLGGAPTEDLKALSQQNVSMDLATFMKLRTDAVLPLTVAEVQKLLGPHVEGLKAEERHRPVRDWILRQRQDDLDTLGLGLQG
As to the kind of experiment: competitive ELISA; row F1.2.12.

Test [9] addresses T4, human MSLN-FL-his protein. As to the kind of experiment: competitive ELISA; row Tab142 (R1).
Description: In order to identify antigen-binding sites of antibodies, MSLN chimeric antibodies were grouped using competitive ELISA.
The chimeric antibodies were diluted to 2 μg/mL with PBS and allowed to coat 96-well high-adsorption ELISA plates at 50 μL/well. After the plates were coated at 4° C. overnight, 250 μL of a blocking buffer (PBS containing 2% (w/w) BSA) was added for two hours of blocking at room temperature. 40 μg/mL of the antibodies to be tested were added, and then the human MSLN-FL-His protein with an EC₈₀ concentration corresponding to each of the antibodies to be tested was added for incubation for 2 h. The plates were washed 5 times with PBS, an HRP-labeled anti-His secondary antibody (purchased from Genescript, Cat. No. A00612) was then added for incubation for 1 h, and the plates were washed 5 times again. A TMB substrate was added at 50 μL/well, and after 10 minutes of incubation at room temperature, a stop solution (1.0 M HCl) was added at 50 μL/well. OD₄₅₀ nm values were read using an ELISA plate reader (Insight, purchased from PerkinElmer), and the competition rate between the antibodies was calculated according to the OD₄₅₀ nm values using a formula.

T1 sequence (Q13421 other isoform, or with tags, fused parts or gaps): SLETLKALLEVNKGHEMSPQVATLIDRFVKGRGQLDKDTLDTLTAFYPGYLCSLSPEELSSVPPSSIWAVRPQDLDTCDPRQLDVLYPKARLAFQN
T3 sequence (Q13421 other isoform, or with tags, fused parts or gaps): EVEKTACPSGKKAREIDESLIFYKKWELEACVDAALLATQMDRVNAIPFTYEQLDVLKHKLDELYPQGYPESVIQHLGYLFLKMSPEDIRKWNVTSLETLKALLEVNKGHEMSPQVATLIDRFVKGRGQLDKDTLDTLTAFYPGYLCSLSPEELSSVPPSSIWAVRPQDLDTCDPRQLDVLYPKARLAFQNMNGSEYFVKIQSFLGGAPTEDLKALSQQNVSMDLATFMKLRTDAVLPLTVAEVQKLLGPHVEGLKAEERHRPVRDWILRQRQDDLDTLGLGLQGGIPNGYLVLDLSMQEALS

B1: Tab107 (YP3, hIgG1) (antibody, V domains shown)
VH: QEQLVESGGGLVQPGASLTLTCTASGIDFSRYYMCWVRQAPGKGLEGIACIYIGGSGSTYYASWAKGRFTISKASSTTVTLQMTSLTAADTATYFCARGTNLNYIFRLWGPGTLVTVSS
VL: DVVMTQTPSPVSAAVGGTVTIKCQASQSINNGLAWYQQKPGQPPRLLIYSASNLESGVPSRFKGSGSGTEFTLTISDLECDDAATYYCQCIWDGNSYVNAFGGGTEVVVRT
notes: Control antibody; VH and VL recombined into human IgG1 CH and CL expression vectors; also called YP3 human IgG1 antibody
In the case of B1, the OD450 nm in test [1] is 0.05; in [2] it was 0.04; in test [3], 0.09; in test [4] it was 0.04; in [5], 0.05. Also, the FACS fluorescence intensity worked out at 1520 in test [6] and 3150 in test [7]. Also, the competition rate was -41% in test [8] and -6% in test [9].

The values above are taken from US20250250357A1 (NANJING ZAIMING PHARMACEUTICAL, published 2025).
